Results as given in patent US20030120038A1 (MERCK, published 2003).

Experiments:
[1] = biological target: T1, sVEGF-RI, natural soluble form of the FLT VEGF receptor, expressed by baculovirus in Sf9 insect cells (human, UniProt P17948 27-656); assay: 96 well plate competition, immobilized sFLT, tracer [125I]PlGF, competitor unlabeled PlGF
T1 construct: also called sFLT; sFlt
Experimental: (§1) Briefly, sVEGF-RI, 50 to […] partially purified by Mono Q chromatography (Pharmacia), was diluted to 10 ml in 25 mM TRIS, pH 7.4, 100 mM NaCl, 20 mM NH₄HCO_{3.} Aliquots ([…]) were absorbed to the surface of a 96 well plate for 18 hours at 4° C., the plates were then washed twice with blocking buffer (DME, 25 mM HEPES, pH 7.5, 0.5% gelatin) and the nonspecific sites were blocked in the same buffer for 6 hours at 4° C. The plate was then washed twice in binding buffer. […] The wells were washed three times with […] of binding buffer, the bound protein was solubilized with […] of 1% SDS, 0.5% BSA and counted in a g counter. The results, shown in FIG. 7, were analyzed by the method of Scatchard [Scatchard, G., (1949) Ann. N.Y. Acad. Sci., 51, pp. 660-672].

[2] = biological target: T2, Ex-KDR, purified extracellular domain of the KDR VEGF receptor (UniProt P35968 20-764, limits assumed); assay: covalent crosslinking (BS3) of purified Ex-KDR with [125I]PlGF, SDS/PAGE
T2 construct: extracellular domain; It may be the same construct; also called extracellular region of KDR
Experimental: The reactions were then crosslinked with 1 mM BS³ at 25° C. for 15 min followed by the addition of boiling Laemmli sample buffer (10). The crosslinked products were analyzed by SDS/7.5% PAGE and the complexes were visualized using a Phosphohnager (Molecular Dynamics, Sunnyvale, Calif.).
The reactions were then crosslinked with 1 mM BS³ at 25° C. for 15 min followed by the addition of boiling Laemmli sample buffer. The crosslinked products were analyzed by SDS/7.5% PAGE and the complexes were visualized using a Phosphohnager (Molecular Dynamics, Sunnyvale, Calif.).

[3] = biological target: T1, sVEGF-RI, natural soluble form of the …; assay: 96 well plate competition, immobilized sFLT, tracer [125I]VEGF, competitor unlabeled PlGF
Experimental: as §1

[4] = biological target: T1, sVEGF-RI, natural soluble form of the …; assay: 96 well plate competition, immobilized sFLT; reference is PlGF displacing [125I]PlGF
Experimental: as §1

[5] = biological target: T1, sVEGF-RI, natural soluble form of the …; assay: 96 well plate assay, sVEGF-RI absorbed to the plate, various amounts of [125I]VEGF, Scatchard analysis
Experimental: as §1

[6] = biological target: T1, sVEGF-RI, natural soluble form of the …; assay: 96 well plate competition, immobilized sFLT, tracer [125I]PlGF, competitor unlabeled VEGF
Experimental: as §1

T1 sequence (P17948 other isoform, or with tags, fused parts or gaps): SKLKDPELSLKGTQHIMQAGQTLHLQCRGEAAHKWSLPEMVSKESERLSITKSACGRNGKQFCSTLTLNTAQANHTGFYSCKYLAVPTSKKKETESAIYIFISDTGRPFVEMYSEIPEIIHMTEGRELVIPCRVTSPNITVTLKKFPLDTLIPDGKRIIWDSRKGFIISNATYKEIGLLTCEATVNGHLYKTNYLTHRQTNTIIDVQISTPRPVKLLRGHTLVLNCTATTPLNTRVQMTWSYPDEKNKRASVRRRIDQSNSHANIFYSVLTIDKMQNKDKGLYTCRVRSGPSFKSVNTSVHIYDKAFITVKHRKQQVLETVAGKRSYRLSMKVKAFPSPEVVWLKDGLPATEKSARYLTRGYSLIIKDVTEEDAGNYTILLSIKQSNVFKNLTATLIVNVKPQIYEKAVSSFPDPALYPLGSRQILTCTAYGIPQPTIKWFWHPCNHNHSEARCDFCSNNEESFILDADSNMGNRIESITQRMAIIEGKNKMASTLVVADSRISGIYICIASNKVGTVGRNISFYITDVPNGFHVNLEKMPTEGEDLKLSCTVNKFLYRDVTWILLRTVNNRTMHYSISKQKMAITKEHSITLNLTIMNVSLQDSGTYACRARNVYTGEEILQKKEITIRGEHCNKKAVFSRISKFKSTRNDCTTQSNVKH
T2 sequence (P35968 20-764 limits assumed): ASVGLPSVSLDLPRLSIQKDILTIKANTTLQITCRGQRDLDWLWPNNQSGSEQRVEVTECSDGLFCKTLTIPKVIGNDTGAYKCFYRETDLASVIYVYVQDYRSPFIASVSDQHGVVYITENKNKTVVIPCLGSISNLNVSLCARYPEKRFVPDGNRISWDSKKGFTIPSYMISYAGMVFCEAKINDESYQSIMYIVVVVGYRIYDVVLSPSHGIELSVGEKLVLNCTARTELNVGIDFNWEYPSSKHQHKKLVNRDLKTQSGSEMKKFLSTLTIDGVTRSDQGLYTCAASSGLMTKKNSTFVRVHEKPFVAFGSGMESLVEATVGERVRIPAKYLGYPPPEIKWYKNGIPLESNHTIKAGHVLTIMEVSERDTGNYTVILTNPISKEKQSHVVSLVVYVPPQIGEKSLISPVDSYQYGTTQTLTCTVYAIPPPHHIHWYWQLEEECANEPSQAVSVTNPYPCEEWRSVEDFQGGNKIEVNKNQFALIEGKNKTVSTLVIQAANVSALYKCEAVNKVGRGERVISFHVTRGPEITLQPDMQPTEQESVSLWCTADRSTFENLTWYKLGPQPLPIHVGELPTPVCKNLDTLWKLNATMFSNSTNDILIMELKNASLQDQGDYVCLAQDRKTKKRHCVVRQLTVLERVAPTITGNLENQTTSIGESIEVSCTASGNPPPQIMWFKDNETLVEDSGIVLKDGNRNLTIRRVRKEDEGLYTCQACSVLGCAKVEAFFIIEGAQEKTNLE

Row | IC50 [1] [nM] | binding result [2] | IC50 [3] [nM] | fold higher concentration to displace 50% of [125I]VEGF than of [125I]PlGF [4] [fold] | Kd [5] [nM] | IC50 [6] [nM] | Binder
1 | ~0.11 | no binding | ~0.55 | ~5 | – | – | recombinant human PlGF (ligand, UniProt P49763-2 19-149, looked up, 125I label (chloramine T method) in the tracer form, also called PIGF) LPAVPPQQWALSAGNGSSEVEVVPFQEVWGRSYCRALERLVDVVSEYPSEVEHMFSPSCVSLLRCTGCCGDENLHCVPVETANVTMQLLKIRSGDRPSYVELTFSQHVRCECRPLREKMKPERCGDAVPRR
2 | – | – | – | – | ~0.02 | 0.01 | human recombinant vascular endothelial cell growth factor (VEGF) (ligand, UniProt P15692-4 27-191, looked up, 125I label (chloramine T method) in the tracer form, also called unlabeled VEGF) APMAEGGGQNHHEVVKFMDVYQRSYCHPIETLVDIFQEYPDEIEYIFKPSCVPLMRCGGCCNDEGLECVPTEESNITMQIMRIKPHQGQHIGEMSFLQHNKCECRPKKDRARQENPCGPCSERRKHLFVQDPQTCKCSCKNTDSRCKARQLELNERTCRCDKPRR
